# Molecular target: the molecule itself
# Assay: high-speed AFM
protein,measurement,value
"Toll/interleukin-1 receptor domain of MyD88 (TIR_(MyD88)), wild type (domain or fragment) PLGHMPERFDAFICYCPSDIQFVQEMIRQLEQTNYRLKLCVSDRDVLPGTCVWSIASELIEKRCRRMVVVVSDDYLQSKECDFQTKFALSLSPGAHQKRLIPIKYKAMKKEFPSILRFITVCDYTNPCTKSWFWTRLAKALSLP",stoichiometry N,58 subunits

# Source: doi:10.1101/2024.09.13.612588 (bioRxiv, 2024)
